Test results: the supplement of paper PMC12458215
± gives the uncertainty stated by the source.

Test system: HEK293T
Experiment: plasma membrane surface immunostaining intensity (anti-HA, deep receptor scanning) (arbitrary fluorescence units); higher = higher plasma membrane expression

Sequence	plasma membrane surface immunostaining intensity (GPCR class: A (Olfactory))	further results
MCSGNQTSQNQTASTDFTLTGLFAESKHAALLYTVTFLLFLMALTGNALLILLIHSEPRLHTPMYFFISQLALMDLMYLCVTVPKMLVGQVTGDDTISPSGCGIQMFFYLTLAGAEVFLLAAMAYDRYAAVCRPLHYPLLMNQRVCQLLVSACWVLGMVDGLLLTPITMSFPFCQSRKILSFFCETPALLKLSCSDVSLYKTLMYLCCILMLLAPIMVISSSYTLILHLIHRMNSAAGHRKALATCSSHMIIVLLLFGASFYTYMLPSSYHTAEQDMMVSAFYTIFTPVLNPLIYSLRNKDVTRALRSMMQSRMNQEK [OR2T3]	450 ± 200	–
MGTARIAPGLALLLCCPVLSSAYALVDADDVMTKEEQIFLLHRAQAQCEKRLKEVLQRPASIMESDKGWTSASTSGKPRKDKASGKLYPESEEDKEAPTGSRYRGRPCLPEWDHILCWPLGAPGEVVAVPCPDYIYDFNHKGHAYRRCDRNGSWELVPGHNRTWANYSECVKFLTNETREREVFDRLGMIYTVGYSVSLASLTVAVLILAYFRRLHCTRNYIHMHLFLSFMLRAVSIFVKDAVLYSGATLDEAERLTEEELRAIAQAPPPPATAAAGYAGCRVAVTFFLYFLATNYYWILVEGLYLHSLIFMAFFSEKKYLWGFTVFGWGLPAVFVAVWVSVRATLANTGCWDLSSGNKKWIIQVPILASIVLNFILFINIVRVLATKLRETNAGRCDTRQQYRKLLKSTLVLMPLFGVHYIVFMATPYTEVSGTLWQVQMHYEMLFNSFQGFFVAIIYCFCNGEVQAEIKKSWSRWTLALDFKRKARSGSSSYSYGPMVSHTSVTNVGPRVGLGLPLSPRLLPTATTNGHPQLPGHAKPGTPALETLETTPPAMAAPKDDGFLNGSCSGLDEEASGPERPPALLQEEWETVM [PTH1R]	–	plasma membrane surface immunostaining intensity (GPCR class: B): 770 ± 69
METTMGFMDDNATNTSTSFLSVLNPHGAHATSFPFNFSYSDYDMPLDEDEDVTNSRTFFAAKIVIGMALVGIMLVCGIGNFIFIAALVRYKKLRNLTNLLIANLAISDFLVAIVCCPFEMDYYVVRQLSWEHGHVLCTSVNYLRTVSLYVSTNALLAIAIDRYLAIVHPLRPRMKCQTATGLIALVWTVSILIAIPSAYFTTETVLVIVKSQEKIFCGQIWPVDQQLYYKSYFLFIFGIEFVGPVVTMTLCYARISRELWFKAVPGFQTEQIRKRLRCRRKTVLVLMCILTAYVLCWAPFYGFTIVRDFFPTVFVKEKHYLTAFYIVECIAMSNSMINTLCFVTVKNDTVKYFKKIMLLHWKASYNGGKSSADLDLKTIGMPATEEVDCIRLK [PROKR1]	–	plasma membrane surface immunostaining intensity (GPCR class: A): 2260 ± 380
MARENHSLAAEFILIGFTNYPELKTLLFVVFSAIYLVTMVGNLGLVALIYVERRLLTPMYIFLGNLALMDSCCSCAVTPKMLENFFSEDRIISLYECMAQFYFLCLAETTDCFLLATMAYDRYVAICHPLQYHTMMSKTLCIRMTTGAFKAGNLHSMIHVGLLLRLTFCRSNKIHHFFCDILPLYRLSCTDPSINELMIYIFSIPIQIFTIATVLISYLCILLTVFKMKSKEGRGKAFSTCASHFLSVSIFYICLLMYIGPSEEGDKDTPVAIFYAIVIPLLNPFIYSLRNKEVINVLKKIMRNYNILKQTCSIANLFLIY [OR5K4]	254 ± 110	–
MLAAAFADSNSSSMNVSFAHLHFAGGYLPSDSQDWRTIIPALLVAVCLVGFVGNLCVIGILLHNAWKGKPSMIHSLILNLSLADLSLLLFSAPIRATAYSKSVWDLGWFVCKSSDWFIHTCMAAKSLTIVVVAKVCFMYASDPAKQVSIHNYTIWSVLVAIWTVASLLPLPEWFFSTIRHHEGVEMCLVDVPAVAEEFMSMFGKLYPLLAFGLPLFFASFYFWRAYDQCKKRGTKTQNLRNQIRSKQVTVMLLSIAIISALLWLPEWVAWLWVWHLKAAGPAPPQGFIALSQVLMFSISSANPLIFLVMSEEFREGLKGVWKWMITKKPPTVSESQETPAGNSEGLPDKVPSPESPASIPEKEKPSSPSSGKGKTEKAEIPILPDVEQFWHERDTVPSVQDNDPIPWEHEDQETGEGVK [GPR151]	–	plasma membrane surface immunostaining intensity (GPCR class: A): 5990 ± 230
MDLKTVLSLPRYPGEFLHPVVYACTAVMLLCLLASFVTYIVHQSAIRISRKGRHTLLNFCFHAALTFTVFAGGINRTKYPILCQAVGIVLHYSTLSTMLWIGVTARNIYKQVTKKAPLCLDTDQPPYPRQPLLRFYLVSGGVPFIICGVTAATNIRNYGTEDEDTAYCWMAWEPSLGAFYGPAAIITLVTCVYFLGTYVQLRRHPGRRYELRTQPEEQRRLATPEGGRGIRPGTPPAHDAPGASVLQNEHSFQAQLRAAAFTLFLFTATWAFGALAVSQGHFLDMVFSCLYGAFCVTLGLFVLIHHCAKREDVWQCWWACCPPRKDAHPALDANGAALGRAACLHSPGLGQPRGFAHPPGPCKMTNLQAAQGHASCLSPATPCCAKMHCEPLTADEAHVHLQEEGAFGHDPHLHGCLQGRTKPPYFSRHPAEEPEYAYHIPSSLDGSPRSSRTDSPPSSLDGPAGTHTLACCTQGDPFPMVTQPEGSDGSPALYSCPTQPGREAALGPGHLEMLRRTQSLPFGGPSQNGLPKGKLLEGLPFGTDGTGNIRTGPWKNETTV [ADGRA1]	–	plasma membrane surface immunostaining intensity (GPCR class: B): 2640 ± 630
MNDDGKVNASSEGYFILVGFSNWPHLEVVIFVVVLIFYLMTLIGNLFIIILSYLDSHLHTPMYFFLSNLSFLDLCYTTSSIPQLLVNLWGPEKTISYAGCMIQLYFVLALGTTECVLLVVMSYDRYAAVCRPLHYTVLMHPRFCHLLAVASWVSGFTNSALHSSFTFWVPLCGHRQVDHFFCEVPALLRLSCVDTHVNELTLMITSSIFVLIPLILILTSYGAIVRAVLRMQSTTGLQKVFGTCGAHLMAVSLFFIPAMCIYLQPPSGNSQDQGKFIALFYTVVTPSLNPLIYTLRNKVVRGAVKRLMGWE [OR2J3]	184 ± 45	–
MVLNVYCCFFQISDIQTMKINQTILKEFILVGFSVYPHVQTFLFVVFFCLYLLTLAGNLIIMGLTWVDRSLHTPMYLFLSALSFSETCYTLTIVPKMLEDLLAKDRSISVTGCSLQMCFFLGLGGTNCIILTLMGYDRFLAICNPLRYPLLMTNIVCGQLVASACTAGFFISLTETALIFRDSFCRPNLVKHFFCHMLAVIRLSCIDSNHTEFIITLISVSGLLGTLLLIILTDVFIISTVLRIPSAEGKQKAFTTCASHLTVVIIHFGFASIVYLKPEASGDDTLIAVPYTVITPFLSPIIFSLRNKDMKNAFRRMMGNTVALKK [OR10X1]	233 ± 96	–
MPVGKLVFNQSEPTEFVFRAFTTATEFQVLLFLLFLLLYLMILCGNTAIIWVVCTHSTLRTPMYFFLSNLSFLELCYTTVVVPLMLSNILGAQKPISLAGCGAQMFFFVTLGSTDCFLLAIMAYDRYVAICHPLHYTLIMTRELCTQMLGGALGLALFPSLQLTALIFTLPFCGHHQEINHFLCDVPPVLRLACADIRVHQAVLYVVSILVLTIPFLLICVSYVFITCAILSIRSAEGRRRAFSTCSFHLTVVLLQYGCCSLVYLRPRSSTSEDEDSQIALVYTFVTPLLNPLLYSLRNKDVKGALRSAIIRKAASDAN [OR10Q1]	243 ± 67	–
MKAGNFSDTPEFFLLGLSGDPELQPILFMLFLSMYLATMLGNLLIILAVNSDSHLHTPMYFLLSILSLVDICFTSTTMPKMLVNIQAQAQSINYTGCLTQICFVLVFVGLENGILVMMAYDRFVAICHPLRYNVIMNPKLCGLLLLLSFIVSVLDALLHTLMVLQLTFCIDLEIPHFFCELAHILKLACSDVLINNILVYLVTSLLGVVPLSGIIFSYTRIVSSVMKIPSAGGKYKAFSICGSHLIVVSLFYGTGFGVYLSSGATHSSRKGAIASVMYTVVTPMLNPLIYSLRNKDMLKALRKLISRIPSFH [OR7G3]	111 ± 21	–
MQPPPSLCGRALVALVLACGLSRIWGEERGFPPDRATPLLQTAEIMTPPTKTLWPKGSNASLARSLAPAEVPKGDRTAGSPPRTISPPPCQGPIEIKETFKYINTVVSCLVFVLGIIGNSTLLRIIYKNKCMRNGPNILIASLALGDLLHIVIDIPINVYKLLAEDWPFGAEMCKLVPFIQKASVGITVLSLCALSIDRYRAVASWSRIKGIGVPKWTAVEIVLIWVVSVVLAVPEAIGFDIITMDYKGSYLRICLLHPVQKTAFMQFYKTAKDWWLFSFYFCLPLAITAFFYTLMTCEMLRKKSGMQIALNDHLKQRREVAKTVFCLVLVFALCWLPLHLSRILKLTLYNQNDPNRCELLSFLLVLDYIGINMASLNSCINPIALYLVSKRFKNCFKSCLCCWCQSFEEKQSLEEKQSCLKFKANDHGYDNFRSSNKYSSS [EDNRB]	–	plasma membrane surface immunostaining intensity (GPCR class: A): 794 ± 140
